How the values were obtained:
[1] = system: H292-HGF human lung cancer xenograft; experiment: Efficacy of bispecific molecule and other inhibitors of EGFR and c-Met, subcutaneous H292-HGF human lung cancer xenograft; format: in vivo, SCID/Beige mice; settings: mouse, in vivo
Description: The H292-HGF cells were maintained in vitro in RPMI1640 medium supplemented with fetal bovine serum (10% v/v), and L-glutamine (2 mM) at 37° C. in an atmosphere of 5% CO2 in air. The cells were routinely subcultured twice weekly by trypsin-EDTA treatment. The cells growing in an exponential growth phase were harvested and counted for tumor inoculation.
Each mouse was inoculated subcutaneously at the right flank region with H292-HGF tumor cells (2×10^6) in 0.1 ml of PBS with cultrex (1:1) for tumor development. The treatments were started when the mean tumor size reached 139 mm3. […] The date of tumor cell inoculation was denoted as day 0.
Before commencement of treatment, all animals were weighed, and the tumor volumes were measured. Since the tumor volume can affect the effectiveness of any given treatment, mice were assigned into groups using randomized block design based upon their tumor volumes. […] The randomized block design was used to assign experimental animals to groups. First, the experimental animals were divided into homogeneous blocks according to their initial tumor volume. Secondly, within each block, randomization of experimental animals to treatments was conducted.
The endpoint was whether tumor growth can be delayed or tumor bearing mice can be cured. Tumor size was measured twice weekly in two dimensions using a caliper, and the volume was expressed in mm3 using the formula: V=0.5 a×b2 where a and b are the long and short diameters of the tumor, respectively. The tumor size was then used for calculations of both T-C and T/C values. T-C was calculated with T as the time (in days) required for the mean tumor size of the treatment group to reach 1000 mm3, and C was the time (in days) for the mean tumor size of the control group to reach the same size. The T/C value (in percent) was an indication of antitumor efficacy; T and C were the mean tumor volume of the treated and control groups, respectively, on a given day. Complete tumor regression (CR) is defined as tumors that are reduced to below the limit of palpation (62.5 mm3). Partial tumor regression (PR) is defined as tumors that are reduced from initial tumor volume. A minimum duration of CR or PR in 3 or more successive tumor measurements is required for a CP or PR to be considered durable.
Statistical analyses of difference in tumor volume among the groups were evaluated using a one-way ANOVA followed by individual comparisons using Games-Howell (equal variance not assumed). All data were analyzed using SPSS 18.0. p<0.05 was considered to be statistically significant.

[2] = Body weight loss and tolerability in the H292-HGF xenograft study; settings: mouse, in vivo
Description: At the time of routine monitoring, the animals were checked for any effects of tumor growth and treatments on normal behavior, such as mobility, visual estimation of food and water consumption, body weight gain/loss (body weights were measured twice weekly), eye/hair matting and any other abnormal effect.
Animals for which the body weight loss exceeded 20%, or for which the mean tumor size of the group exceeds 2000 mm^3 were euthanized. The study was terminated after two weeks of observation after the final dose.

[3] = Differential scanning calorimetry in PBS (thermal stability); format: physicochemical; settings: DSC in PBS, EGFR-binding FN3 domains
Description: A subset of the EGFR binding FN3 domains was engineered to increase the conformational stability of each molecule. […] The new mutants, P54AR5-83v2, P54CR431-v2, and P54AR4-37v2 were expressed and purified as described above. Differential scanning calorimetry in PBS was used to assess the stability of each mutant in order to compare it to that of the corresponding parent molecule.
Differential scanning calorimetry in PBS was used to assess the stability of each FN3 domain.

[4] = system: NCI-H292 cells expressing human HGF; experiment: Tumor efficacy study with four bispecific EGFR/c-Met molecules, H292-HGF xenografts; format: in vivo, SCID Beige mice; settings: 25 mg/kg three times per week
Description: One week after implantation, mice were stratified into groups with equivalent tumor volumes (mean tumor volume=77.9+/−1.7 mm3). Mice were dosed three times per week with the bispecific molecules and tumor volumes were recorded twice weekly.

H292 cells = experiment: Inhibition of proliferation of HGF-induced H292 cells; format: cell-based, human; settings: bispecific molecules
Description: Inhibition of tumor cell proliferation can be measured using standard methods and methods described herein.
The proliferation assay was completed using different combinations EGFR and c-Met binding FN3 domains either as a mixture or linked in a bispecific format. […] This confirmed that the avidity effect observed at the level of the receptors (FIG. 4 and FIG. 5) translates into an improvement in inhibiting cell signaling (Table 12) and cell proliferation (Table 13).
Inhibition of human tumor cell growth was assessed in standard attachment culture as described in Examples 3 or 6, or in low attachment conditions.

Row | IC50 (H292 cells) | Molecule | Tm [3] | other results
1 |  | C[C@@H](Oc1cc(-c2cnn(C3CCNCC3)c2)cnc1N)c1c(Cl)ccc(F)c1Cl [Crizotinib, crizotinib, reference compound] |  | antitumor activity (in words) [1]: no antitumor activity; toxicity, body weight loss, tolerability (in words) [2]: More severe body weight loss
2 |  | C#Cc1cccc(Nc2ncnc3cc(OCCOC)c(OCCOC)cc23)c1 [Erlotinib, erlotinib, reference compound] |  | toxicity, body weight loss, tolerability (in words) [2]: More severe body weight loss
3 |  | P54CR4-31: EGFR-binding FN3 domain, SEQ ID NO: 26 (protein, EGFR binding FN3 domain) LPAPKNLVVSEVTEDSLRLSWTAPDAAFDSFLIQYQESEKVGEAINLTVPGSERSYDLTGLKPGTEYTVSIYGVLGSYVFEHDVMLPLSAEFTT | 60.9 °C | 
4 |  | P54CR4-31v2: EGFR-binding FN3 domain, SEQ ID NO: 28; stabilized P54CR4-31 (protein, EGFR binding FN3 domain) LPAPKNLVVSEVTEDSARLSWTAPDAAFDSFLIQYQESEKVGEAIVLTVPGSERSYDLTGLKPGTEYTVSIYGVLGSYVFEHDVMLPLSAIFTT | 78.9 °C | 
5 |  | P54AR4-37v2: EGFR-binding FN3 domain, SEQ ID NO: 29; stabilized P54AR4-37 (protein, EGFR binding FN3 domain) LPAPKNLVVSEVTEDSLRLSWTWPYADLDSFLIQYQESEKVGEAINLTVPGSERSYDLTGLKPGTEYTVSIYGVHNVYKDTNMRGLPLSAEFTT | 64.2 °C | 
6 |  | P54AR4-83: EGFR-binding FN3 domain, SEQ ID NO: 25 (protein, EGFR binding FN3 domain) LPAPKNLVVSEVTEDSLRLSWDDPWAFYESFLIQYQESEKVGEAINLTVPGSERSYDLTGLKPGTEYTVSIYGVHNVYKDTNMRGLPLSAEFTT | 50.6 °C | 
7 |  | P54AR4-37: EGFR-binding FN3 domain, printed SEQ ID NO: 22 (possibly P54AR4-73) (protein, EGFR binding FN3 domain) LPAPKNLVVSEVTEDSLRLSWTWPYADLDSFLIQYQESEKVGEAINLTVPGSERSYDLTGLKPGTEYTVSIYGVHNVYKDTNMRGLPLSAEFTT | 45.9 °C | 
8 |  | ECB18: bispecific SEQ ID NO: 118: P54AR4-83v2, (AP)5, P114AR5P74-A5, linked to albumin binding domain (protein, Bispecific EGFR/c-Met binding molecule) MLPAPKNLVVSEVTEDSARLSWDDPWAFYESFLIQYQESEKVGEAIVLTVPGSERSYDLTGLKPGTEYTVSIYGVHNVYKDTNMRGLPLSAIFTTAPAPAPAPAPLPAPKNLVVSRVTEDSARLSWTAPDAAFDSFWIRYDEVVVGGEAIVLTVPGSERSYDLTGLKPGTEYYVNILGVKGGSISVPLSAIFTTAPAPAPAPAPLAEAKVLANRELDKYGVSDYYKNLINNAKTVEGVKALLDEILAALP |  | tumor growth (tumor growth inhibition, TGI) [4]: reduced tumor growth; tumor growth (tumor growth inhibition, TGI) ([4]; listed as P54AR4-83v2-P114AR5P74-A5): delay in tumor growth
9 |  | ECB28: bispecific SEQ ID NO: 119: P53A1R5-17v2, (AP)5, P114AR5P74-A5, linked to albumin binding domain (protein, Bispecific EGFR/c-Met binding molecule) MLPAPKNLVVSEVTEDSARLSWADPHGFYDSFLIQYQESEKVGEAIVLTVPGSERSYDLTGLKPGTEYTVSIYGVHNVYKDTNMRGLPLSAIFTTAPAPAPAPAPLPAPKNLVVSRVTEDSARLSWTAPDAAFDSFWIRYDEVVVGGEAIVLTVPGSERSYDLTGLKPGTEYYVNILGVKGGSISVPLSAIFTTAPAPAPAPAPLAEAKVLANRELDKYGVSDYYKNLINNAKTVEGVKALLDEILAALP |  | tumor growth (tumor growth inhibition, TGI) [4]: reduced tumor growth
10 |  | ECB39: bispecific SEQ ID NO: 121: P53A1R5-17v2, (AP)5, P114AR7P94-A3, linked to albumin binding domain (protein, Bispecific EGFR/c-Met binding molecule) MLPAPKNLVVSEVTEDSARLSWADPHGFYDSFLIQYQESEKVGEAIVLTVPGSERSYDLTGLKPGTEYTVSIYGVHNVYKDTNMRGLPLSAIFTTAPAPAPAPAPLPAPKNLVVSRVTEDSARLSWTAPDAAFDSFWIRYFEFLGSGEAIVLTVPGSERSYDLTGLKPGTEYVVNIMGVKGGKISPPLSAIFTTAPAPAPAPAPLAEAKVLANRELDKYGVSDYYKNLINNAKTVEGVKALLDEILAALP |  | tumor growth (tumor growth inhibition, TGI) [4]: reduced tumor growth; tumor growth (tumor growth inhibition, TGI) ([4]; listed as P53A1R5-17v2-P114AR7P94-A3): showed the most efficacy
11 | 31 nM | ECB97: bispecific SEQ ID NO: 64: P54AR4-83v22, (AP)5, P114AR7P95-C5v2 (protein, bispecific EGFR/cMet binding molecule) MLPAPKNLVVSEVTEDSARLSWDDPWAFYESFLIQYQESEKVGEAIVLTVPGSERSYDLTGLKPGTEYTVSIYGVHNVYKDTNIRGLPLSAIFTTAPAPAPAPAPLPAPKNLVVSRVTEDSARLSWTAPDAAFDSFWIRYFEFLGSGEAIVLTVPGSERSYDLTGLKPGTEYVVNILSVKGGSISPPLSAIFTT |  | 
12 | 11400 nM | ECB108: bispecific SEQ ID NO: 67: P54AR4-83v23, (AP)5, P114AR9P122-A7v2 (protein, bispecific EGFR/cMet binding molecule) MLPAPKNLVVSEVTEDSARLSWDDPHAFYESFLIQYQESEKVGEAIVLTVPGSERSYDLTGLKPGTEYTVSIYGVHNVYKDTNIRGLPLSAIFTTAPAPAPAPAPLPAPKNLVVSRVTEDSARLSWTAPDAAFDSFWIRYFEFVSKGDAIVLTVPGSERSYDLTGLKPGTEYVVNILGVKGGSISPPLSAIFTT |  | 
13 | 484 nM | ECB106: bispecific SEQ ID NO: 65: P54AR4-83v23, (AP)5, P114AR7P94-A3v22 (protein, bispecific EGFR/cMet binding molecule) MLPAPKNLVVSEVTEDSARLSWDDPHAFYESFLIQYQESEKVGEAIVLTVPGSERSYDLTGLKPGTEYTVSIYGVHNVYKDTNIRGLPLSAIFTTAPAPAPAPAPLPAPKNLVVSRVTEDSARLSWTAPDAAFDSFWIRYFEFLGSGEAIVLTVPGSERSYDLTGLKPGTEYVVNILGVKGGKISPPLSAIFTT |  | 
14 | 574 nM | ECB109: bispecific SEQ ID NO: 68: P54AR4-83v23, (AP)5, P114AR7P95-C5v2 (protein, bispecific EGFR/cMet binding molecule) MLPAPKNLVVSEVTEDSARLSWDDPHAFYESFLIQYQESEKVGEAIVLTVPGSERSYDLTGLKPGTEYTVSIYGVHNVYKDTNIRGLPLSAIFTTAPAPAPAPAPLPAPKNLVVSRVTEDSARLSWTAPDAAFDSFWIRYFEFLGSGEAIVLTVPGSERSYDLTGLKPGTEYVVNILSVKGGSISPPLSAIFTT |  | 
15 | 2640 nM | ECB107: bispecific SEQ ID NO: 66: P54AR4-83v23, (AP)5, P114AR9P121-A6v2 (protein, bispecific EGFR/cMet binding molecule) MLPAPKNLVVSEVTEDSARLSWDDPHAFYESFLIQYQESEKVGEAIVLTVPGSERSYDLTGLKPGTEYTVSIYGVHNVYKDTNIRGLPLSAIFTTAPAPAPAPAPLPAPKNLVVSRVTEDSARLSWTAPDAAFDSFWIRYFEFVGSGEAIVLTVPGSERSYDLTGLKPGTEYVVNILGVKGGSISPPLSAIFTT |  | 

Reference: patent US12304939B2, “EGFR and C-met fibronectin type III domain binding molecules” (Janssen Biotech, Inc., priority 2012, dated 2025)
